One block for each molecule: values may come before it.
Tests used:
Type III collagen = assay: Collagen fibril formation rate (turbidity at 325 nm), type III collagen; format: biochemical
Protocol: (§1) FIG. 2. Type III collagen fibrillogenesis after neutralisation in the presence of transglutaminases. Collagen (3 mg/ml) was neutralised as in the methods and was treated with 0, 50 or 250 μg/ml of mTG (A) or tTG (B). 500 μM inhibitor R281 was used to confirm that the effects were due to transglutaminase activity. The absorbance at 325 nm was measured using a PYE Unicam SP1800 UV spectrophotometer. The temperature was controlled at 25° C. using a Techne C-85A circulator. Results are from the average of 3 independent experiments.
(§2) Collagen fibrillogenesis was monitored by measuring the absorbance (turbidity) at 325 nm using a PYE Unicam SP1800 UV spectrophotometer.

Type I collagen = assay: Collagen fibril formation rate (turbidity at 325 nm), type I collagen; format: biochemical, calf
Protocol: as §1, with “1.” for “2.”, “I” for “III”, “microbial TG” for “mTG”, “μM of the TGase” for “μM”, “N-Benzyloxycarbonyl-L-phenylalanyl-6-dimethyl-sulfonium-5-oxo-L-norleucine (‘R281’)” for “R281”
as §2

N,N′-dimethylcasein = assay: Transglutaminase activity: incorporation of [14-C]-putrescine into N,N′-dimethylcasein; format: biochemical; details: Unit = 1 nmol of putrescine incorporated per hour
Text: The incorporation of [14-C]-putrescine into N,N′-dimethylcasein, as described earlier by Lorand et al. (1972) was used to assay for TG activity and monitor the effects of the inhibitors. Unit of transglutaminase activity is 1 nmol of putrescine incorporated per hour.

[1] = Determination of ε-(γ-glutamyl)lysine cross-link (ion exchange amino acid analysis of digested collagen); format: physicochemical; details: for the equivalent (μg of protein) TG concentration
Protocol: Neutralised collagen mixture was subjected to treatment by both tissue and microbial TG. Samples of the neutralised collagen were treated with 50-1000 μg/ml of tTG, in a reaction mix consisting of 2 mM DTT and 5 mM CaCl2 in 10 mM Tris buffer (pH 7.4). The reaction mixture for the microbial enzyme simply consisted of 10 mM Tris buffer (pH 7.4). Incorporated fibronectin (Sigma-Aldrich, Poole, UK. Cat no. F0895) was used at concentrations of 5 μg/ml and 50 μg/ml. Transglutaminase was always added last to the collagen-reaction mix to minimise any self-imposed cross-linking. […]
Cross-linked and native samples of collagen were proteolytically digested by a modification of the methods of Griffin and Wilson (1984), which included an initial digestion with microbial collagenase (Clostridium histolyticum; 1 mg/ml, Sigma-Aldrich, Poole, UK. Cat no. C9891), prior to the addition of further proteases. […] Derivatisation was performed post column using o-pthaldialdehyde (0.8M boric acid, 0.78M potassium hydroxide, […] o-phthaldialdehyde, 0.5% (v/v) methanol, 0.75% (v/v) 2-mercaptoethanol, 0.35% (v/v) Brij 30) and the absorbance was measured at 450 nm. Dipeptide was determined by addition of known amounts of ε(γ-glutamyl)lysine to the sample and comparing peak areas.

[2] = 50 μg or 250 μg of TG, collagen 3 mg/ml, absorbance at 325 nm, 25° C., vs untreated

inhibition of the transglutaminase effects on fibrillogenesis (Type III collagen; 500 μM inhibitor): abolished these effects
inhibition of the transglutaminase effects on fibrillogenesis (Type I collagen; 500 μM inhibitor): abolished these effects
Molecule: C[S+](C)CC(=O)CC[C@H](NC(=O)[C@H](Cc1ccccc1)NC(=O)OCc1ccccc1)C(=O)O.[Br-] [R281, N-Benzyloxycarbonyl-L-phenylalanyl-6-dimethylsulfonium-5-oxo-L-nor-leucine bromide salt, reference compound]

Typical activities for the transglutaminases used (N,N′-dimethylcasein): 16000-25000 Units/mg
B1: mTG: Microbial transglutaminase from Streptoverticillium mobaraenase, purified from Activa WM (Ajinomoto) (protein, UniProt P81453 77-407, looked up)
Protein-glutamine …: DSDDRVTPPAEPLDRMPDPYRPSYGRAETVVNNYIRKWQQVYSHRDGRKQQMTEEQREWLSYGCVGVTWVNSGQYPTNRLAFASFDEDRFKNELKNGRPRSGETRAEFEGRVAKESFDEEKGFQRAREVASVMNRALENAHDESAYLDNLKKELANGNDALRNEDARSPFYSALRNTPSFKERNGGNHDPSRMKAVIYSKHFWSGQDRSSSADKRKYGDPDAFRPAPGTGLVDMSRDRNIPRSPTSPGEGFVNFDYGWFGAQTEADADKTVWTHGNHYHAPNGSLGAMHVYESKFRNWSEGYSDFDRGAYVITFIPKSWNTAPDKVKQGWP
Activity of the transglutaminase used to pre-treat collagen for the cell experiments (N,N′-dimethylcasein): 16000 Units/mg
amount of isopeptide formed, comparison in words [1]: much greater increase (almost two-fold)
time taken to achieve gel formation (Type III collagen; [2]): significant reduction
time taken to achieve gel formation (Type I collagen; [2]): significant reduction
